The values that follow come from article PMC4871718 (Nature chemical biology, 2016).

One assay addresses T1, CIB1-CreC (UniProt Q8GY61).
T1 sequence (Q8GY61 whole entry, looked up): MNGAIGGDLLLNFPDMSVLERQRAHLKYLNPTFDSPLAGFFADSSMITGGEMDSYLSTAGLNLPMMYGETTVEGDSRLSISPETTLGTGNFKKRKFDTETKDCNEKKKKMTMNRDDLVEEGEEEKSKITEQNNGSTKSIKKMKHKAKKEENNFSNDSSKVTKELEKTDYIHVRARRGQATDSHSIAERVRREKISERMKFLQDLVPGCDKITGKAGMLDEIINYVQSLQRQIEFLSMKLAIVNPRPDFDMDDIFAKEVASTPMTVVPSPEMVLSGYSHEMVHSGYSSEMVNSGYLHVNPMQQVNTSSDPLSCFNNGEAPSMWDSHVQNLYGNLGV

A further assay has as its target LexABD-CRY2(535) (Arabidopsis thaliana, UniProt Q96524 1-535). Briefly: two-hybrid.

Turning to “CRY2(L348F)-CreN (from UniProt Q96524 1-612; P06956 1-104)”, the Cre recombination with extended 24 hour illumination with CIB1-CreC is above 50%.

B1: VP16-CIB1 (natural protein, UniProt Q8GY61 1-335, looked up)
chain: MNGAIGGDLLLNFPDMSVLERQRAHLKYLNPTFDSPLAGFFADSSMITGGEMDSYLSTAGLNLPMMYGETTVEGDSRLSISPETTLGTGNFKKRKFDTETKDCNEKKKKMTMNRDDLVEEGEEEKSKITEQNNGSTKSIKKMKHKAKKEENNFSNDSSKVTKELEKTDYIHVRARRGQATDSHSIAERVRREKISERMKFLQDLVPGCDKITGKAGMLDEIINYVQSLQRQIEFLSMKLAIVNPRPDFDMDDIFAKEVASTPMTVVPSPEMVLSGYSHEMVHSGYSSEMVNSGYLHVNPMQQVNTSSDPLSCFNNGEAPSMWDSHVQNLYGNLGV
As to B1, the “fold reduction in dark activity against LexABD-CRY2PHR” value with LexABD-CRY2(535) is 26 fold.
